The results in this text go back to article PMC9935904.

One may read the Kd as a measure of binding affinity in units of concentration. The low end stands for higher affinity, the high end for lower affinity. A word on the koff: it is the rate constant with which the complex falls apart. Lower therefore signals slow dissociation. A word on the kon: it is a measure of how fast the partners come together. Low values mean slow association, high ones fast association. The term stoichiometry N denotes a count of units in the complex or per binding partner.

The target in this experiment is Lathyrus sativus β-L-ODAP synthase (LsBOS), N-terminal His-tag (Lathyrus sativus). The experiment in a line: SPR; Biacore 8K, CM5 chip; LsBOS amine-coupled (~1700 response), LsAAE3 as analyte; single cycle kinetics at 2.4, 12, 60, 300 and 1500 nM; 10 mM Hepes pH 7.4, 150 mM NaCl, 0.05 % tween 20, 25 °C; simple Langmuir binding model.

“Lathyrus sativus acyl-activating enzyme 3 (LsAAE3), N-terminal His-tag” yielded a Kd of 98 nM, a koff of 0.000361 s⁻¹, an on-rate constant (kon) of 3670 M⁻¹ s⁻¹ and a stoichiometry N of 1.
